Reference: PMC5886718

Key:
[1] = target: Glycine oxidase from Pseudoalteromonas luteoviolacea CPMOR-2 (PlGoxA) (Pseudoalteromonas luteoviolacea CPMOR-2); assay: crystal structure
[2] = target: Glycine oxidase from Pseudoalteromonas luteoviolacea CPMOR-2 (PlGoxA) (Pseudoalteromonas luteoviolacea CPMOR-2); assay: SEC

Glycine oxidase from Pseudoalteromonas luteoviolacea CPMOR-2 (PlGoxA) (enzyme)
stoichiometry N [1]: 4 | stoichiometry N [2]: 4
